This is an account of results in paper PMC3763534.

Conditions in all cases: 20 mM Hepes pH 7.5, 100 mM KAc, 200 mM KCl, 3 mM MgCl2, 1 mM TCEP; 37 C, 20 min; RNA folded in 20 mM Hepes pH 7.5, 150 mM KCl, 5 mM MgCl2
Data set [1] deals with 40S ribosomal subunit (HeLa or RRL, used interchangeably) (Homo sapiens or rabbit). As to the kind of experiment: EMSA. For orientation: Mobility shift assays separate free from complexed probe on a gel.
The test system of data set [2] is eIF3 (preparation not specified). The experiment in a line: filter binding.
The test system of data set [3] is 40S ribosomal subunit (HeLa or RRL, used interchangeably) (Homo sapiens or rabbit). As to the kind of experiment: filter binding.
The subject of data set [4] is 40S ribosomal subunit (HeLa or RRL, used interchangeably);eIF3 (preparation not specified) (Homo sapiens or rabbit;Homo sapiens?). The experiment in a line: filter binding.
Data set [5] relates to 80S ribosome. As to the kind of experiment: EMSA.
The test system of data set [6] is 40S ribosomal subunit (HeLa) (Homo sapiens (HeLa)). As to the kind of experiment: EMSA.
Data set [7] relates to 40S ribosomal subunit (RRL) (rabbit (reticulocyte lysate)). The experiment in a line: EMSA.

pKd: −log10 of the molar value.

As for “AGGUUGGGGUAAACACUCCGGCCUCUUAAGCCAUUUCCUGUUUUUUUUUUUUUUUUUUUUUUUUUUUUCUUUUUUUUUUUCUUUCCUUUCCUUCUUUUUUUCCUUUCUUUUUCCCUUCUUUAAUGGUGGCUCCAUCUUAGCCCUAGUCACGGCUAGCUGUGAAAGGUCCGUGAGCCGCAUGACUGCAGAGAGUGCUGAUACUGGCCUCUCUGCAGAUCAUGU [HCV 3'UTR genotype 1a]”, the pKd in data set [1] is 8.17.

In the case of HCV 3'UTR, the pKd is 8.05 in data set [2]; 8.74 in data set [3]; 9.00 in data set [4]; 7.93 in data set [5]; 8.74 in data set [6]; 8.27 in data set [7].

As for HCV 3'UTR genotype 1b, the pKd in data set [1] was 8.33.

In data set [1], HCV 3'UTR genotype 2a gave a negative logarithm of the Kd (pKd) of 8.46.

HCV 3'UTR genotype 3a gave a pKd in data set [1] of 8.43. In turn, “UAGACGAGCGGCCCUAAACAACACUCCAUAACAUUUUUUUUUUUUUUUUUUUUUUUUUUUUUUUUUUUUUUUUUUUUUUUUUUUUUUUUUUUUUUUCUUUCUUAUCUGUCUAUCCCUUAGACUCCUUCUUUGGUGGCUCCAUCUUAGCCCUAGUCACGGCUAGCUGUGAAAGGUCCGUGAGCCGCAUGACUGCAGAGAGUGCUGAUACUGGCCUCUCUGCAGUUCAUGU [HCV 3'UTR genotype 6b]” gave a pKd in data set [1] of 8.17.

Usually pKd stands for −log10 of the Kd, conventionally taken in molar units. Read a high pKd as a low Kd.
